Measurements reported in patent US20220025021A1 (BETH ISRAEL DEACONESS MEDICAL CENTER, published 2022).
Substitutions are numbered along the chain they refer to.

B1: MS-86 (antibody)
VH: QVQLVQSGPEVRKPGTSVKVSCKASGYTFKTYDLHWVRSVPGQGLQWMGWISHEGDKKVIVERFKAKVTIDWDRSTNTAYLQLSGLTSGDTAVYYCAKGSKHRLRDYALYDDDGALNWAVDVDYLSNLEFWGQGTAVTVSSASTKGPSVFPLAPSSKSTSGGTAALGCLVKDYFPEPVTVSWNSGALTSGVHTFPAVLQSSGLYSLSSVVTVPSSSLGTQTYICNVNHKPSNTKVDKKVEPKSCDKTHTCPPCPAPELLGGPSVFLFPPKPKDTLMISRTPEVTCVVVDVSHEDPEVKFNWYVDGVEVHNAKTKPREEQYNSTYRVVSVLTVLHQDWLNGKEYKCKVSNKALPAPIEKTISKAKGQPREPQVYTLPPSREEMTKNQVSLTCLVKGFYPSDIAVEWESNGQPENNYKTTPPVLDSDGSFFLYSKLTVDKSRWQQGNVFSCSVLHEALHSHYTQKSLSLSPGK
VL: DFVLTQSPHSLSVTPGESASISCKSSHSLIHGDRNNYLAWYVQKPGRSPQLLIYLASSRASGVPDRFSGSGSDKDFTLKISRVETEDVGTYYCMQGRESPWTFGQGTKVDIKRTVAAPSVFIFPPSDEQLKSGTASVVCLLNNFYPREAKVQWKVDNALQSGNSQESVTEQDSKDSTYSLSSTLTLSKADYEKHKVYACEVTHQGLSSPVTKSFNRGEC
B2: MS-81 (antibody, V domains shown)
VH: QVQLVQSGPEVRKPGTSVKVSCKAPGNTLKTYDLHWVRSVPGQGLQWMGWISHEGDKKVIVERFKAKVTIDWDRSTNTAYLELSGLTSGDTAVYYCAKGSKHRLRDYALYDDDGALNWAVDVDYLSNLEFWGQGTAVTVSS
VL: DFVLTQSPHSLSVTPGESASISCKSSHSLIHGDRNNYLAWYVQKPGRSPQLLIYLASSRASGVPDRFSGSGSDKDFTLKISRVETEDVGTYYCMQGRESPWTFGQGTKVDIKR
B3: MS-85 (antibody, V domains shown)
VH: B2 VH with E82Q
VL: B2 VL with F2I, D73G, K74T
B4: MS-87 (antibody, V domains shown)
VH: B2 VH with D71T, W72R, E82Q
VL: B2 VL
B5: MS-83 (antibody, V domains shown)
VH: B2 VH with E82Q, D113E
VL: B2 VL
B6: MS-82 (antibody, V domains shown)
VH: B2 VH with E82Q, T87R
VL: B2 VL
B7: MS-84 (antibody, V domains shown)
VH: B2 VH with E82Q, T87R
VL: B2 VL with H9L, S12P, S18P, R47Q, T85A, T90V
B8: MS-88 (antibody, V domains shown)
VH: B2 VH with P25S, N27Y, L29F, D71T, W72R, E82Q
VL: B2 VL
B9: MS-89 (antibody, V domains shown)
VH: B2 VH with N27Y, D71T, E82Q
VL: B2 VL with H9L

What follows are binders tested against HIV-1 pseudovirus 6952.v1.c20 (HIV-1) (assay: cell-based or functional assay).

Row | Binder | IC50 (neutralization in TZM.bl cells) | IC80 (neutralization in TZM.bl cells)
1 | B1 | 2.55 µg/mL | > 25 µg/mL
2 | B2 | 0.228 µg/mL | > 25 µg/mL
3 | B3 | 0.393 µg/mL | > 25 µg/mL
4 | B4 | > 25 µg/mL | > 25 µg/mL
5 | B5 | 0.126 µg/mL | 3.09 µg/mL
6 | B6 | 0.212 µg/mL | 23 µg/mL
7 | B7 | 0.237 µg/mL | 18.2 µg/mL
8 | B8 | > 25 µg/mL | > 25 µg/mL
9 | B9 | > 25 µg/mL | > 25 µg/mL

These binders were tested against HIV-1 pseudovirus SC05.8C11.2344 (HIV-1) (assay: cell-based or functional assay).

Row | Binder | IC50 (neutralization in TZM.bl cells) | IC80 (neutralization in TZM.bl cells)
10 | B1 | 1.62 µg/mL | 5.39 µg/mL
11 | B2 | 0.537 µg/mL | 2.01 µg/mL
12 | B3 | 0.425 µg/mL | 1.49 µg/mL
13 | B4 | 1.23 µg/mL | 5.17 µg/mL
14 | B5 | 0.381 µg/mL | 1.88 µg/mL
15 | B6 | 0.502 µg/mL | 1.8 µg/mL
16 | B7 | 0.481 µg/mL | 1.74 µg/mL
17 | B8 | 1.54 µg/mL | 7.31 µg/mL
18 | B9 | 0.82 µg/mL | 3.75 µg/mL

These binders were tested against HIV-1 pseudovirus X1193_c1 (HIV-1) (assay: cell-based or functional assay).

Row | Binder | IC50 (neutralization in TZM.bl cells) | IC80 (neutralization in TZM.bl cells)
19 | B1 | 0.167 µg/mL | 0.371 µg/mL
20 | B2 | 0.113 µg/mL | 0.512 µg/mL
21 | B3 | 0.068 µg/mL | 0.507 µg/mL
22 | B4 | 0.098 µg/mL | 0.277 µg/mL
23 | B5 | 0.061 µg/mL | 0.308 µg/mL
24 | B6 | 0.084 µg/mL | 0.411 µg/mL
25 | B7 | 0.058 µg/mL | 0.285 µg/mL
26 | B8 | 0.171 µg/mL | 0.775 µg/mL
27 | B9 | 0.144 µg/mL | 0.636 µg/mL

The binders below were run against HIV-1 pseudovirus AC10.0.29 (HIV-1) (assay: cell-based or functional assay).

Row | Binder | IC50 (neutralization in TZM.bl cells) | IC80 (neutralization in TZM.bl cells)
28 | B1 | 0.107 µg/mL | 0.741 µg/mL
29 | B2 | 0.044 µg/mL | 0.324 µg/mL
30 | B3 | 0.044 µg/mL | 0.242 µg/mL
31 | B4 | 0.059 µg/mL | 0.328 µg/mL
32 | B5 | 0.038 µg/mL | 0.259 µg/mL
33 | B6 | 0.05 µg/mL | 0.267 µg/mL
34 | B7 | 0.052 µg/mL | 0.257 µg/mL
35 | B8 | 0.089 µg/mL | 0.743 µg/mL
36 | B9 | 0.067 µg/mL | 0.618 µg/mL

What follows are binders tested against HIV-1 pseudovirus 263-8 (HIV-1) (assay: cell-based or functional assay).

Row | Binder | IC50 (neutralization in TZM.bl cells) | IC80 (neutralization in TZM.bl cells)
37 | B1 | 0.009 µg/mL | 0.05 µg/mL
38 | B2 | 0.013 µg/mL | 0.037 µg/mL
39 | B3 | 0.011 µg/mL | 0.043 µg/mL
40 | B4 | 0.065 µg/mL | 0.361 µg/mL
41 | B5 | 0.007 µg/mL | 0.05 µg/mL
42 | B6 | 0.011 µg/mL | 0.033 µg/mL
43 | B7 | 0.006 µg/mL | 0.03 µg/mL
44 | B8 | 0.111 µg/mL | 0.99 µg/mL
45 | B9 | > 25 µg/mL | > 25 µg/mL

What follows are binders tested against HIV-1 pseudovirus Ce1176_A3 (HIV-1) (assay: cell-based or functional assay).

Row | Binder | IC50 (neutralization in TZM.bl cells) | IC80 (neutralization in TZM.bl cells)
46 | B1 | 0.366 µg/mL | 4.25 µg/mL
47 | B2 | 0.044 µg/mL | 0.646 µg/mL
48 | B3 | 0.073 µg/mL | 1.72 µg/mL
49 | B4 | 0.907 µg/mL | 25 µg/mL
50 | B5 | 0.029 µg/mL | 0.405 µg/mL
51 | B6 | 0.023 µg/mL | 0.635 µg/mL
52 | B7 | 0.018 µg/mL | 0.567 µg/mL
53 | B8 | 2.76 µg/mL | > 25 µg/mL
54 | B9 | 0.298 µg/mL | 9.21 µg/mL
